# B1: (FoxP4)_#4 (scFv)
# scFv (VL-linker-VH-His/HA tag): QSVLTQPPSVSGAPGQRVTISCTGSNSNIGADFDVHWYQQLPGTAPKLLIYGNNNRPSGVPDRFSGSKSDTSASLAITGLQAEDEADYYCQSYDISLNGYVFGTGTKVTVLGSRGGGGSGGGGSGGGGSLEMAQVQLQQWGAGLLKPSETLSLTCAVSGGSFSDYYWSWIRQPPGKGLEWIGEITHTGSTNYNPSLKSRVTISVDTSKNHFSLNLTSVTAADTAVYYCARSNGFYYDTWGQGTLVTVSSTSGQAGQHHHHHHGAYPYDVPDYAS
# notes: also called EXT018-4; EXT018-04 scFv phage clone
# B2: (FoxP4)_#5 (scFv)
# scFv (VL-linker-VH-His/HA tag): QSVLTQPPSVSVAPGKTAKITCGGDNIGSKTVHWYQQKPGQAPALLIYYDSDRPSGIPERFSGSNSGNTATLSISRVEAGDEAGYFCQVWDGSSDHVIFGGGTKLTVLGSRGGGGSGGGGSGGGGSLEMAQMQLVQSGGGVVQPGRSLRLSCAASGFTFSSYAMHWVRQAPGKGLEWVAVISYDGSNKYYADSVKGRFTISRDNSKNTLYLQMNSLRAEDTAVYYCARDRHDYVMDVWGKGTTVTVSSTSGQAGQHHHHHHGAYPYDVPDYAS
# notes: also called EXT018-5; EXT018-05 scFv phage clone
# B3: EXT017-32 mouse IgG1 (antibody, V domains shown)
# VH: EVQLVESGGGVVQPGRSLRLSCAASGFTFNNHAMHWVRQAPGKGLEWVAVISFDGDDKFYADSVKGRFTISRDNSRNTLFLQMNNLRPEDTAVYYCSRDPYHFASGSYSYFDYWGQGTLVTVSS
# VL: QSVLTQPPSVSVAPGKTARITCGGNNIGSKSVHWYQQKPGQAPVLVIYYDSDRPSGIPERFSGSNSGNTATLTISRVEAGDEADYYCQVWDSSSDHYVFGTGTKVTVLG
# notes: Mouse IgG1 format of clone #32 made by Eureka Therapeutics; conjugated to APC for flow cytometry of Tregs; also called EXT017-32 mIgG; EXT017-32 mIgG1
# B4: EXT017-32 human IgG1 (antibody, V domains shown)
# VH: B3 VH
# VL: B3 VL
# notes: Full-length human IgG1 with matching human lambda or kappa light chain constant region; Fc-enhanced (afucosylated); also called EXT017-32 hIgG; EXT017-32-hIgG1
# B5: (FoxP4)_#2 (scFv)
# scFv (VL-linker-VH-His/HA tag): QSVVTQPPSVSGAPGQRVTISCTGSSSNIGAGFDVHWYQQLPGTAPKLLIYGNSNRPSGVPDRFSGSKSATSASLAITGLQAEDEADYYCQSYDSSLSGVVFGGGTKLTVLGSRGGGGSGGGGSGGGGSLEMAQVQLVQSGAEVKKPGSSVKVSCKTSGGTFSSYAISWVRQAPGQGLEWMGGIIPIFGTANYAQRFQGRVTITADESTNTVYMELSSLRSEDTAVYYCARESWYLDEWGQGTLVTVSSTSGQAGQHHHHHHGAYPYDVPDYAS
# notes: also called EXT018-2; EXT018-02 scFv phage clone
# How the values were obtained:
# [1] = target: T1, HLA-A*02:01 on T2 cells alone (no peptide added) (human); test: flow cytometry, phage on T2 without peptide
# T1 construct: TAP-deficient T2 cells without pulsed peptide; negative control target, and the HLA molecule whose stabilisation by peptides is read in the T2 stabilization assay; also called HLA-A*02 molecule; HLA-A2 molecule
# [2] = target: T1, HLA-A*02:01 on T2 cells alone (no …); test: flow cytometry, phage on T2 without peptide; secondary only 125, unstained 99.8
# [3] = target: T2, R3 (RHAMM-R3) peptide/HLA-A*02:01 complex on T2 cells (human); test: flow cytometry, phage on T2 + R3 peptide; secondary only 118, unstained 91.1
# T2 construct: Control target of the phage staining of T2 cells; also called T2 cells pulsed with R3 peptide; RHAMM 3 (R3)
# [4] = target: T3, EXT017 (Foxp3-7) peptide/HLA-A*02:01 complex, recombinant (human); test: SPR
# T3 construct: The BLI and SPR paragraphs only say 'EXT017 peptide/HLA-A*02:01 complex'; also called EXT017 peptide/HLA-A*02:01 complex; biotinylated single chain Foxp3p/HLA-A0201 complex
# [5] = target: T3, EXT017 (Foxp3-7) peptide/HLA-A*02:01 …; test: SPR; printed under the head 'ka [1/Ms]': the heads of c3 and c4 are evidently interchanged
# [6] = target: T3, EXT017 (Foxp3-7) peptide/HLA-A*02:01 …; test: SPR; printed under the head 'kd [1/s]': the heads of c3 and c4 are evidently interchanged (0.005167/1.12E+07 = 0.46 nM)
# [7] = target: T3, EXT017 (Foxp3-7) peptide/HLA-A*02:01 …; test: SPR; printed under the head 'kd [1/s]': the heads of c3 and c4 are evidently interchanged (0.01222/5.97E+07 = 0.205 nM)
binder,measurement,setting,value
B1,binding result,[1],no binding
same,Median:FITC-A,[2],155
same,Median:FITC-A,[3],148
B2,binding result,[1],no binding
same,Median:FITC-A,[2],155
same,Median:FITC-A,[3],143
B3,Kd,[4],0.462 nM
same,koff,[5],0.00517 s⁻¹
same,kon,[6],1.12e+07 M⁻¹ s⁻¹
B4,Kd,[4],0.205 nM
same,koff,[5],0.0122 s⁻¹
same,kon,[7],5.97e+07 M⁻¹ s⁻¹
B5,binding result,[1],no binding
same,Median:FITC-A,[2],157
same,Median:FITC-A,[3],147
